Laboratory results reported in US20210179729A1 (University of California, published 2021).

T1: Cynomolgus monkey CDCP1 (Cynomolgus monkey, UniProt A0A2K5VLA8 30-667)
T1 construct: construct not described
T1 sequence: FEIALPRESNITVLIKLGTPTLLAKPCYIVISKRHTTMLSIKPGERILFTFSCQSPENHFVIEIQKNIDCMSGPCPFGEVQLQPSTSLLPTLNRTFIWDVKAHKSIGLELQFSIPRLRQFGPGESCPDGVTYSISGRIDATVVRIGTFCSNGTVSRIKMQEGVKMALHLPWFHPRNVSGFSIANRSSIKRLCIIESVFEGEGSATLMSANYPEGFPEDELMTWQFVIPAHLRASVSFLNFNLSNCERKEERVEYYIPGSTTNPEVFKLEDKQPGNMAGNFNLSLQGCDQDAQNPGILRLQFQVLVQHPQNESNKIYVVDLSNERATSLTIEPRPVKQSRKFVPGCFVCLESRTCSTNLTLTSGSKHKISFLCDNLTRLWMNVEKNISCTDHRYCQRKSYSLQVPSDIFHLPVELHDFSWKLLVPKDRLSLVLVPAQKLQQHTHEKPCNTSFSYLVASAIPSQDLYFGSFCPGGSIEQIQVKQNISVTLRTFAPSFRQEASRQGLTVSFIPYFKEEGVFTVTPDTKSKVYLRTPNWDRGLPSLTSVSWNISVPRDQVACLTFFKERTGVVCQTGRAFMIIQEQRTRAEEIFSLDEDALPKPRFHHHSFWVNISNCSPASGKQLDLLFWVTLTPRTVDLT

T2: Human CDCP1 (human, UniProt Q9H5V8 30-667, limits assumed)
T2 construct: also called CUB domain-containing protein 1; SIMA135
T2 sequence (looked up): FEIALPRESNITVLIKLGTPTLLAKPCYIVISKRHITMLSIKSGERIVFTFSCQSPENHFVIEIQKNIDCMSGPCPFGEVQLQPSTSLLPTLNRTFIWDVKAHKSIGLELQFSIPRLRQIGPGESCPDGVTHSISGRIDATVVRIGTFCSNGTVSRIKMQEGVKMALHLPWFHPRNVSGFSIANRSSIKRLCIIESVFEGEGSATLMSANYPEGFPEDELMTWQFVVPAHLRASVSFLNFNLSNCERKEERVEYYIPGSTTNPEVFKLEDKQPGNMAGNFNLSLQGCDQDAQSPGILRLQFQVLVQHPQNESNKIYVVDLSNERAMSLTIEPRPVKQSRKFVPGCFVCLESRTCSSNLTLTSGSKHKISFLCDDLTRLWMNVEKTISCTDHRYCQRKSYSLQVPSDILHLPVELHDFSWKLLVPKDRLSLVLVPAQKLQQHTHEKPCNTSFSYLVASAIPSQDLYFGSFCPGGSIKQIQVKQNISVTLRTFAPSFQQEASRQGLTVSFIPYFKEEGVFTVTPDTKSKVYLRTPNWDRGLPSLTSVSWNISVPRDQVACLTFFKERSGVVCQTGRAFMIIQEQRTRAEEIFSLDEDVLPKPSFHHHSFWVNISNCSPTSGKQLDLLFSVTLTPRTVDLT

T3: CDCP1 extracellular domain displayed on the surface of HEK293 (T-Rex-293) cells (human, UniProt Q9H5V8 30-667)
T3 construct: extracellular domain; also called CDCP1 Cell; not shown: fluorescent protein expression reporter and generic single-pass transmembrane domain
T3 sequence (looked up): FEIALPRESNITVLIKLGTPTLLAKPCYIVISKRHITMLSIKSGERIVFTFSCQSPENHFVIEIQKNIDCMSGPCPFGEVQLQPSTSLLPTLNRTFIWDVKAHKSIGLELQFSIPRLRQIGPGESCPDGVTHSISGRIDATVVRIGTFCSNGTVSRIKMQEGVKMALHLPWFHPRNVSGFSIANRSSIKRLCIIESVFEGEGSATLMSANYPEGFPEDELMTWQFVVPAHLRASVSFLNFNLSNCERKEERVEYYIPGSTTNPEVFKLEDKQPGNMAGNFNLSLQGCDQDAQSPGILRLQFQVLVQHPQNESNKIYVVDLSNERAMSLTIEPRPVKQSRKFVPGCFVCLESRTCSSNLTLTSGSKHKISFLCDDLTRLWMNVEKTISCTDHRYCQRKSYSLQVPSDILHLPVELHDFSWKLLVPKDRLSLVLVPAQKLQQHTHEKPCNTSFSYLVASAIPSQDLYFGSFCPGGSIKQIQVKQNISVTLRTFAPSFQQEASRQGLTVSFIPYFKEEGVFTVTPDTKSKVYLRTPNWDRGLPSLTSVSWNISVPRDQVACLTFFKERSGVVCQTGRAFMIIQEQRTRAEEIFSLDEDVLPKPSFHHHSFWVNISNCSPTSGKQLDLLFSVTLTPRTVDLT

T4: CDCP1 aas 30-367 (human, UniProt Q9H5V8 30-367)
T4 construct: range 30-367
T4 sequence (looked up): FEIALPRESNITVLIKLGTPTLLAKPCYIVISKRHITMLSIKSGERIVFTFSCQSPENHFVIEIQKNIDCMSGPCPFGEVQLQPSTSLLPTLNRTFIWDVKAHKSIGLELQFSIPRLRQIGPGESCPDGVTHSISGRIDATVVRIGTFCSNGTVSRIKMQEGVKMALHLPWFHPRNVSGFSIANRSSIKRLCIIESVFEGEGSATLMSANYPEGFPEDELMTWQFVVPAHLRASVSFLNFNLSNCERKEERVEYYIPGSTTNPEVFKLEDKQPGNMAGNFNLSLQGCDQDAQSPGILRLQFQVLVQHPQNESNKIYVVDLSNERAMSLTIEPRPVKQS

B1: CDCP1-004 Fab (Fab, V domains shown)
VH: EVQLVESGGGLVQPGGSLRLSCAASGFNISYYYMHWVRQAPGKGLEWVASIYSSYGYTSYADSVKGRFTISADTSKNTAYLQMNSLRAEDTAVYYCARVYYGFDYWGQGTLVTVSS
VL: DIQMTQSPSSLSASVGDRVTITCRASQSVSSAVAWYQQKPGKAPKLLIYSASSLYSGVPSRFSGSRSGTDFTLTISSLQPEDFATYYCQQSYYVYPITFGQGTKVEIK
notes: Tested as Fab
B2: CDCP1-002 Fab (Fab, V domains shown)
VH: EVQLVESGGGLVQPGGSLRLSCAASGFNLSYYYIHWVRQAPGKGLEWVASIYSSSSYTSYADSVKGRFTISADTSKNTAYLQMNSLRAEDTAVYYCARAYYGFDYWGQGTLVTVSS
VL: DIQMTQSPSSLSASVGDRVTITCRASQSVSSAVAWYQQKPGKAPKLLIYSASSLYSGVPSRFSGSRSGTDFTLTISSLQPEDFATYYCQQSYYYYPITFGQGTKVEIK
notes: Tested as Fab from a synthetic Fab-phage library; Used 89Zr-labeled for PET and 125I-labeled for Bmax; also called CDCP1-4A06; CDCP1 Fab
B3: CDCP1-003 Fab (Fab, V domains shown)
VH: EVQLVESGGGLVQPGGSLRLSCAASGFNISYYSMHWVRQAPGKGLEWVASISPYSGYTSYADSVKGRFTISADTSKNTAYLQMNSLRAEDTAVYYCARGYYALDYWGQGTLVTVSS
VL: DIQMTQSPSSLSASVGDRVTITCRASQSVSSAVAWYQQKPGKAPKLLIYSASSLYSGVPSRFSGSRSGTDFTLTISSLQPEDFATYYCQQYYYFYPFTFGQGTKVEIK
notes: Tested as Fab
B4: CDCP1-005 Fab (Fab, V domains shown)
VH: EVQLVESGGGLVQPGGSLRLSCAASGFNISYYYIHWVRQAPGKGLEWVASIYPYYGSTYYADSVKGRFTISADTSKNTAYLQMNSLRAEDTAVYYCARAYYGFDYWGQGTLVTVSS
VL: DIQMTQSPSSLSASVGDRVTITCRASQSVSSAVAWYQQKPGKAPKLLIYSASSLYSGVPSRFSGSRSGTDFTLTISSLQPEDFATYYCQQSYWSFPITFGQGTKVEIK
notes: Tested as Fab
B5: CDCP1-007 Fab (Fab, V domains shown)
VH: EVQLVESGGGLVQPGGSLRLSCAASGFNIYSYYIHWVRQAPGKGLEWVASIYPYYGYTSYADSVKGRFTISADTSKNTAYLQMNSLRAEDTAVYYCARAYYGMDYWGQGTLVTVSS
VL: DIQMTQSPSSLSASVGDRVTITCRASQSVSSAVAWYQQKPGKAPKLLIYSASSLYSGVPSRFSGSRSGTDFTLTISSLQPEDFATYYCQQSYFYWPITFGQGTKVEIK
notes: Tested as Fab
B6: CDCP1-008 Fab (Fab, V domains shown)
VH: EVQLVESGGGLVQPGGSLRLSCAASGFNISSYYMHWVRQAPGKGLEWVASIYPYSGYTYYADSVKGRFTISADTSKNTAYLQMNSLRAEDTAVYYCARAYYAMDYWGQGTLVTVSS
VL: DIQMTQSPSSLSASVGDRVTITCRASQSVSSAVAWYQQKPGKAPKLLIYSASSLYSGVPSRFSGSRSGTDFTLTISSLQPEDFATYYCQQSYYVYPITFGQGTKVEIK
notes: Tested as Fab
B7: CDCP1-006 Fab (Fab, V domains shown)
VH: EVQLVESGGGLVQPGGSLRLSCAASGFNLYYSYMHWVRQAPGKGLEWVAYISPYSGSTYYADSVKGRFTISADTSKNTAYLQMNSLRAEDTAVYYCARYSYSALDYWGQGTLVTVSS
VL: DIQMTQSPSSLSASVGDRVTITCRASQSVSSAVAWYQQKPGKAPKLLIYSASSLYSGVPSRFSGSRSGTDFTLTISSLQPEDFATYYCQQSSWHYHLFTFGQGTKVEIK
notes: Tested as Fab

Columns and labels:
[1] = target: CD3 on the surface of T-cells (Jurkat reporter cells) (UniProt P07766); test: cell-based or functional assay
[2] = target: CDCP1 on human cells (MCF10A KRASG12V, HPAC) (human) (UniProt Q9H5V8); test: cell-based or functional assay
[3] = target: T1, Cynomolgus monkey CDCP1; test: ELISA; column head 'ELISA~EC50 Kd (nM)'
[4] = target: T2, Human CDCP1; test: ELISA; column head 'ELISA~EC50 Kd (nM)'
[5] = target: T3, CDCP1 extracellular domain displayed on …; test: flow cytometry, Fab on CDCP1 Cell
[6] = target: T4, CDCP1 aas 30-367; test: ELISA, CDCP1 specificity on fragments

Sequence of CD3 on the surface of T-cells (Jurkat reporter cells) (P07766 23-207): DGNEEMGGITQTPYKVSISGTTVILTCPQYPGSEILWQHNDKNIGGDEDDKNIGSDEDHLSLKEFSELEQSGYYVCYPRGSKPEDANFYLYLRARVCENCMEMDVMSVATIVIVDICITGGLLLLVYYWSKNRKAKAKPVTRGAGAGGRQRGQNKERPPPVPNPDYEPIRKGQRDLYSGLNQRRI

Molecule | T-cell activation (NFAT-dependent GFP reporter, flow cytometry) in co-culture with HPAC cells at 1 nM BiTE [1] [%] | T-cell activation (NFAT-dependent GFP reporter, flow cytometry) in co-culture with HPAC cells at 1 nM BiTE [2] [%] | EC50 [3] [nM] | EC50 [4] [nM] | Flow Cytometry (MFI) [5] [MFI] | binding result [6]
CDCP1 BiTE (CDCP1-002 Fab genetically fused to OKT3 anti-CD3 scFv) (bispecific antibody) | 75 | 75 |  |  |  | 
B1 |  |  | 34.9 | 2.37 | 770 | 
B2 |  |  | 19.6 | 0.651 | 1160 | 
B3 |  |  | 666 | 65.3 | 180 | 
B4 |  |  |  |  | 870 | 
B5 |  |  | 22.4 | 18 | 2.33 | 
B6 |  |  | 97.1 | 76.2 | 673 | 
B7 |  |  | 3.34 | 29.6 | 52.3 | no binding
